A short description of data set [1]: Microsphere formation, size and appearance by light microscopy. It counts as physicochemical. The method, then: 4) DAS181+5 mM sodium citrate, pH 5.0+10% isopropanol; • Plastic microcentrifuge tubes containing the cocktails with ingredients as described in 1)-4) above were gradually cooled from: • (a) ambient temperature (about 25° C.) to 4° C. by placing the cocktails in a refrigerator, followed by: • (b) cooling to −20° C. by placing the resulting cocktail from (a) in a freezer, followed by: • (c) freezing to −80° C. by placing the resulting cocktail from b) in a freezer.
Freezing to −80° C. is carried out to remove ingredients from the cocktail other than the microspheres (e.g., solvent, etc.) by freeze-drying. Cocktail 4) was prepared in triplicate, two aliquots in plastic tubes and one in a glass tube. One aliquot (in a plastic tube) was cooled as described above, while the two other aliquots (one in a plastic tube and one in a glass tube) were subjected to snap cooling/freezing by dipping the tubes into liquid nitrogen.
Upon freezing, all tubes were placed into the lyophilizer and the volatiles (water and isopropanol) were removed by sublimation, leaving the dry pellets.
The dry pellets recovered from the cocktails treated as described above, were tested for the presence of microspheres.
(§1) DAS181 was purified and used to prepare microspheres as described above in Example 1 (see cocktail 4)), using a combination of DAS181 protein (10 mg/ml), citrate counterion (sodium citrate, 5 mM) and isopropanol organic solvent (10%, 20% or 30%). The resulting cocktail solutions were cooled from ambient temperature (about 25° C.) to 4° C., followed by cooling to −20° C., followed by freezing to −80° C., as described in Example 1. Upon freezing to −80° C., the tubes are placed in a lyophilizer and the volatiles (water and isopropanol) were removed by sublimation, leaving the dry powder containing microspheres.
as §1, with “protein (5 mg/ml or 10” for “protein (10”, “isopropanol (5%” for “isopropanol organic solvent (10%, 20%”, “or 20%).” for “or 30%).”, “tubes were” for “tubes are”
DAS181 was purified and used to prepare microspheres as described above in Example 1 (see cocktail 4)), using a combination of DAS181 protein (10 mg/ml), citrate counterion (sodium citrate; 2 mM, 3 mM or 6 mM) and isopropanol (20%). The cocktail solutions were mixed in glass vials and cooled from +20° C. to −40° C. at a freeze ramp of 1° C. per minute in a Millrock Lab Series lyophilizer. Volatiles (water and isopropanol) were removed by sublimation at 100 mTorr with primary drying at −30° C. for 12 hours and secondary drying at 30° C. for 3 hours, leaving the dry powder containing microspheres.
To a cocktail solution containing 5 mg/ml DAS181, 5 mM sodium citrate, and 20% isopropanol, was added a surfactant (3.5% w/w lecithin, 0.7% w/w Span-85® (sorbitan trioleate), or 3.5% w/w oleic acid).

The nature of data set [2]: Microsphere quality score by light microscopy (scoring system of Table 13). It counts as physicochemical. The procedure: For each of the compounds listed in A-D above, and for DAS181, cocktail solutions containing 2 mg/ml of compound dissolved in an aqueous solvent and various counterions, antisolvents and pH, as listed below, were prepared in a 96-well microtiter plate (0.1 ml cocktail/well) at room temperature. Control solutions contained either solvent or antisolvent alone, with or without the counterion. Cocktails were cooled by placing in a freezer. The chilled plates were transferred onto pre-chilled (−45° C.) shelves of a Millrock Lab Series Lyophilizer, and the vacuum was applied. The frozen cocktail solutions were allowed to lyophilize for 16 hours.
The lyophilized powders from the bottoms of the wells were transferred onto glass slides and analyzed by light microscopy for appearance. The quality of the product microspheres was scored based on the uniformity of the microspheres, the absence of undesirable non-microsphere particles (glass-like crystalline forms), and the absence of aggregates.
Arginine was used as counterion and isopropanol was used as antisolvent. Concentrations of each of the cocktail components—the compound, the counterion and the antisolvent—were varied as shown below in Table 15, and the effect on microsphere quality assessed.
Experiments were performed to evaluate the effect of antisolvent and counterion concentration variation on the formation of microspheres. The peptides leuprolide and somatostatin, and the antibiotics vancomycin and tobramycin, were tested under a variety of conditions for forming microspheres. Samples were analyzed in 96-well plates as described in the previous Examples.
The experiments were performed using PGI2 and an analog of PGI2, Ciprostene, at a concentration of 2 mg/ml. Cocktail solutions were mixed at room temperature, then cooled by placing in a freezer. The chilled plates were transferred onto pre-chilled (−45° C.) shelves of a Millrock Lab Series Lyophilizer, and the vacuum was applied. The frozen cocktail solutions were allowed to lyophilize for 16 hours.
Because the resulting prostaglandin microspheres are hygroscopic, upon microsphere initiation, the humidity was maintained at low levels during the experiments, using a nitrogen gas tank attached to the backfill system on the lyophilizer. Each of the reaction tubes was flushed with N2. In addition, the backfill valve on the lyophilizer was left open to continually flush a low humidity atmosphere over the samples. The microscope used to visualize the resulting microspheres was contained within a plastic bag that was continually purged with dry N2. Sample tubes were placed under the bag to equilibrate for approximately 30 seconds, before opening and spreading onto the glass slide.
The compound/counterion/antisolvent conditions were as follows:
Experiments were performed with 200 μl of each of the above cocktail solutions in a 2 ml lyophilization bottle (first flash freeze condition), and 25 μl of each of the above cocktail solutions in a PCR tube (second flash freeze condition). The samples in the lyophilization bottles took approximately 15 seconds to freeze. The samples in the PCR tubes took approximately 3 seconds or less to freeze.
The cocktails in the 96-well plates were cooled by placing in a freezer. The chilled plates were transferred onto pre-chilled (−45° C.) shelves of a Millrock Lab Series Lyophilizer, and a vacuum was applied. The frozen cocktail solutions were allowed to lyophilize for 16 hours.
The lyophilized powders from the bottoms of the wells were transferred onto glass slides and analyzed by light microscopy for appearance.

B1: DAS181: fusion protein: heparin (GAG) binding domain of human amphiregulin fused to a catalytic domain of Actinomyces Viscosus sialidase (SEQ ID NO:17) (protein)
chain: MGDHPQATPAPAPDASTELPASMSQAQHLAANTATDNYRIPAITTAPNGDLLISYDERPKDNGNGGSDAPNPNHIVQRRSTDGGKTWSAPTYIHQGTETGKKVGYSDPSYVVDHQTGTIFNFHVKSYDQGWGGSRGGTDPENRGIIQAEVSTSTDNGWTWTHRTITADITKDKPWTARFAASGQGIQIQHGPHAGRLVQQYTIRTAGGAVQAVSVYSDDHGKTWQAGTPIGTGMDENKVVELSDGSLMLNSRASDGSGFRKVAHSTDGGQTWSEPVSDKNLPDSVDNAQIIRAFPNAAPDDPRAKVLLLSHSPNPRPWSRDRGTISMSCDDGASWTTSKVFHEPFVGYTTIAVQSDGSIGLLSEDAHNGADYGGIWYRNFTMNWLGEQCGQKPAKRKKKGGKNGKNRRNRKKKNP
modifications: DAS181
B1: the size of microspheres entry in data set [1] (5 mg/ml DAS181, 5 mM sodium citrate, 20% isopropanol) is reported as “about 3 microns”; in data set [1] (10 mg/ml DAS181, 2 mM citrate, 20% isopropanol, +20°C to −40°C at 1°C per minute), 1 micron; in data set [1] (10 mg/ml DAS181, 3 mM citrate, 20% isopropanol, +20°C to −40°C at 1°C per minute), 3 microns; in data set [1] (10 mg/ml DAS181, 5 mM sodium citrate, 30% isopropanol, gradual cooling), 5-6 microns; in data set [1] (10 mg/ml DAS181, 6 mM citrate, 20% isopropanol, +20°C to −40°C at 1°C per minute), 5 microns. The “dispersivity of microspheres formed with surfactant vs without” value in data set [1] (5 mg/ml DAS181, 5 mM sodium citrate, 20% isopropanol + 3.5% w/w lecithin, 0.7% w/w Span-85 or 3.5% w/w oleic acid) is reported as “improved dispersivity”. Moreover, the “Microsphere Quality” value in data set [2] (2 mM Na-Glutamate, 15% n-propanol, pH 4.0) is given as 6/7; in data set [2] (2 mM Na-citrate, 15% isopropanol, pH 4.0), 5/6; in data set [2] (2 mM Na-citrate, 15% n-propanol, pH 5.0), 8/9.
